According to the supplement of paper PMC11908140:

B1: library; numbered along this chain (parent)
chain: MRKPRAAVGSGHRKQAASQEGRQKHAKNNSQAKPSACDGLARQPEEVVLQASVSSYHLFRDVAEVTAFRGSLLSWYDQEKRDLPWRRRAEDEMDLDRRAYAVWVSEVMLQQTQVATVINYYTGWMQKWPTLQDLASASLEEVNQLWAGLGYYSRGRRLQEGARKVVEELGGHMPRTAETLQQLLPGVGRYTAGAIASIAFGQATGVVDGNVARVLCRVRAIGADPSSTLVSQQLWGLAQQLVDPARPGDFNQAAMELGATVCTPQRPLCSQCPVESLCRARQRVEQEQLLASGSLSGSPDVEECAPNTGQCHLCLPPSEPWDQTLGVVNFPRKASRKPPREESSATCVLEQPGALGAQILLVQRPNSGLLAGLWEFPSVTWEPSEQLQRKALLQELQRWAGPLPATHLRHLGEVVHTFSHIKLTYQVYGLALEGQTPVTTVPPGARWLTQEEFHTAAVSTAMKKVFRVYQGQQPGTCMGSKRSQVSSPCSRKKPRMGQQVLDNFFRSHISTDAHSLNSAAQ

Variants of: B1
Experiment: 8OG:A repair function score (normalized; synonymous = 0, nonsense = -1) (normalized log-likelihood score); higher = more repair activity (WT-like)
Conditions: with 8OG:A DNA repair reporter (GFP) in HEK-293 MUTYH KO cells
Method in brief: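 Per-tile Rosace fitness scores were converted to a normalized repair function score anchored on synonymous and nonsense distributions. That scale puts synonymous medians at 0 and nonsense medians at -1. Variants with starting counts under 300 counts per million were discarded. Input came from sorting viable mCherry+ MUTYH knockout HEK-293 cells, carrying lentiviral MUTYH cDNA NNN codon-scan libraries in 10 pg/ml doxycycline and an 8OG:A GFP repair reporter, into GFP+ and GFP− bins at 72 h, three replicates per tile, followed by tile amplicon sequencing.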
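Further: cells sorted at 72 h after reporter transfection.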

8OG:A repair function score: each site, then its substitutions
F504: T 0.0122; V -0.00446; M 0.0285; R -0.00117; S 0.0238; C -0.00333; Y 0.0257; W -0.0289; K -0.0046; I 0.00771; G -0.0353; L 0.0067; A 0.00928; Q -0.00826; D 0.0276; E 0.0256; H 0.0204; P -0.0247; N 0.023
N503: I -0.0307; K -0.0135; H -0.0815; L 0.00339; Y -0.0151; Q 0.0112; D -0.0599; P -0.000934; T 0.00666; C 0.00549; R -0.0109; G 0.00621; E 0.0211; F 0.0039; S -0.019; W -0.011; A 0.0125; M -9.05e-05; V -0.0118
S507: E 0.000264; V -0.000918; L -0.0301; W -0.0429; C -0.0153; F -0.0917; Q -0.0688; A -0.0386; K -0.0064; Y -0.141; R -0.00355; D -0.0424; M -0.0199; G -0.00119; I -0.0448; T 0.0162; P 0.0118; H -0.084; N -0.0395
S518: R -0.0226; A 0.00286; Q -0.0542; C -0.0625; Y 0.0286; G 0.0246; W -0.0247; P -0.0287; K -0.0195; V -0.01; E 0.0194; H -0.0153; D -0.00955; L -0.0274; F -0.0829; T 0.014; N 0.00686; I -0.00126
A513: N 0.0128; L -0.00457; W -0.0476; C -0.00572; Y -0.00892; I 0.00892; S 0.00165; E -0.0288; V -0.0254; H -0.0076; P -0.0105; R 0.00911; Q 0.0184; M -0.0173; F -0.00203; T 0.000215; D 0.0137; G 0.0049; K 0.0278
R506: A -0.0637; I 0.0189; F -0.0582; P 0.0202; G -0.0057; N 0.00916; C 0.0164; Y 0.0145; D 0.0134; S 0.00235; K 0.0152; E 0.0109; T 0.0259; L 0.00814; Q -0.052; W -0.0815; V -0.0196
D502: N 0.011; M -0.0464; Q -0.0749; R 0.0187; G -0.00456; V -0.0389; K -0.00432; I -0.0355; Y -0.0488; S -0.0153; T 0.00564; L -0.0337; P -0.0101; H -0.0311; W -0.0396
H514: F -0.0319; C -0.00794; M -0.00625; L -0.0137; T -0.02; I -0.00558; W -0.03; Q 0.00808; Y -0.00319; K 0.0132; D -0.0358; P -0.00868; V 0.0053; N 0.00779; E -0.0112; A -0.021; S -0.0171; G 0.0114; R -0.0107
F505: W 0.00244; D 0.0229; S 0.0199; N 0.0264; L 0.0157; P 0.0167; M -0.0487; Y 0.00392; H -0.0303; A 0.00138; R 0.016; Q 0.0246; C 0.0238; I 0.0133; K -0.0487; V 0.00446; G 0.00871; T 0.0174
I509: V 0.0164; P 0.0272; D -0.00523; W -0.00561; C -0.00892; F -0.0535; G -0.00592; T 0.026; M -0.0347; K -0.00442; L 0.00266; A 0.0157; R -0.0323; H 0.0112; E 0.0145; Q 0.0194; Y -0.0704; S 0.0252; N 0.0286
A519: G -0.00167; F 0.0212; V -0.0127; C -0.00674; L -0.012; E 0.0285; R 0.013; W 0.00269; T -0.0144; M -0.00851; S 0.00395; N -0.00616; D 0.0164; I -0.0243; Y 0.0154; K 0.0032; P 0.0175; Q 0.023; H -0.00545
L516: E 0.0196; T 0.0209; S 0.0241; G 0.00843; C 0.00795; Q 0.0225; A 0.017; M 0.00845; D -0.0107; P 0.00373; R -0.0194; Y 0.0181; I 0.0106; F 0.0067; N 0.0104; K 0.00908; H 0.0157; V 0.0206; W -0.0603
D512: N -0.0198; T -0.0649; R -7.7e-05; L -0.0115; G -0.00398; V 0.00239; M -0.033; C 0.0193; F -0.0699; W -0.023; E -0.0165; I -0.0146; Q -0.02; K -0.0591; A -0.0123; Y -0.0038; P -0.0253; S -0.0201; H -0.0208
T511: W -0.0217; M -0.0046; Q 0.0207; E -0.0321; H 0.0209; N -0.0682; L -0.0126; G 0.00111; Y 0.0102; I -0.0251; K -0.00393; D -0.0938; S -0.0121; R 0.00505; F -0.00618; A -0.038; P -0.0422; C -0.014; V -0.00751
N517: D 0.0077; V -0.00815; Q 0.00486; R 9.97e-05; W -0.0342; E -0.0872; F -0.0651; L -0.0164; T -0.0674; I -0.00121; Y -0.0106; P 0.0174; S 0.00189; K -0.077; A -0.00673; M 0.0171; H 0.0285; G 0.0215; C -0.0105
S510: H 0.0212; N -0.0738; L 0.0205; R 0.00127; D -0.0311; E -0.0364; P 0.0141; A -0.00841; W -0.046; T 0.00117; G -0.0202; V -0.00843; F -0.00526; Q -0.053; C -0.0307; M -0.0272; K -0.00453; I -0.0731; Y -0.0344
H508: N -0.00695; W 0.018; Q 0.000578; T 0.0103; F -0.00232; L -0.0429; V -0.0097; D -0.000798; A -0.00475; G -0.00256; P 0.00413; C -0.0231; E 0.0183; M -0.0245; I -0.0148; R -0.0128; Y 0.0034; S -0.00585; K -0.0603
S515: D -0.0425; N 0.0152; M -0.00894; C -0.0274; F -0.00769; H -0.0115; L -0.00831; V 0.00837; P -0.0381; K -0.00207; Q -0.00958; I -0.0207; E 0.0198; Y 0.025; A -0.018; R 0.00703; T -0.00495; G -0.000426; W -0.0167
